Tested on: coxsackievirus B3 (CVB3-GFP)
Type: cell-based
Details: HeLa cells, replicate R1; for Percent Infected R1: GFP-positive cells within RFP-positive gate

B1: RNF170: human RING type E3 ligase expressed from lentiviral vector (protein, UniProt Q96K19 1-258, looked up)
E3 ubiquitin-protein ligase …: MAKYQGEVQSLKLDDDSVIEGVSDQVLVAVVVSFALIATLVYALFRNVHQNIHPENQELVRVLREQLQTEQDAPAATRQQFYTDMYCPICLHQASFPVETNCGHLFCGACIIAYWRYGSWLGAISCPICRQTVTLLLTVFGEDDQSQDVLRLHQDINDYNRRFSGQPRSIMERIMDLPTLLRHAFREMFSVGGLFWMFRIRIILCLMGAFFYLISPLDFVPEALFGILGFLDDFFVIFLLLIYISIMYREVITQRLTR
modifications: lentiviral expression
notes: human RING type E3 ligase expressed from lentiviral vector
Percent Infected R1: 97.3%
Z score R1: 0.11

B2: TRIM59: human RING type E3 ligase expressed from lentiviral vector (protein, UniProt Q8IWR1 1-403, looked up)
Tripartite motif-containing …: MHNFEEELTCPICYSIFEDPRVLPCSHTFCRNCLENILQASGNFYIWRPLRIPLKCPNCRSITEIAPTGIESLPVNFALRAIIEKYQQEDHPDIVTCPEHYRQPLNVYCLLDKKLVCGHCLTIGQHHGHPIDDLQSAYLKEKDTPQKLLEQLTDTHWTDLTHLIEKLKEQKSHSEKMIQGDKEAVLQYFKELNDTLEQKKKSFLTALCDVGNLINQEYTPQIERMKEIREQQLELMALTISLQEESPLKFLEKVDDVRQHVQILKQRPLPEVQPVEIYPRVSKILKEEWSRTEIGQIKNVLIPKMKISPKRMSCSWPGKDEKEVEFLKILNIVVVTLISVILMSILFFNQHIITFLSEITLIWFSEASLSVYQSLSNSLHKVKNILCHIFYLLKEFVWKIVSH
Percent Infected R1: 59.5%
Z score R1: −0.37

B3: TRIM62: human RING type E3 ligase expressed from lentiviral vector (protein)
chain: MACSLKDELLCSICLSIYQDPVSLGCEHYFCRRCITEHWVRQEAQGARDCPECRRTFAEPALAPSLKLANIVERYSSFPLDAILNARRAARPCQAHDKVKLFCLTDRALLCFFCDEPALHEQHQVTGIDDAFDELQRELKDQLQALQDSEREHTEALQLLKRQLAETKSSTKSLRTTIGEAFERLHRLLRERQKAMLEELEADTARTLTDIEQKVQRYSQQLRKVQEGAQILQERLAETDRHTFLAGVASLSERLKGKIHETNLTYEDFPTSKYTGPLQYTIWKSLFQDIHPVPAALTLDPGTAHQRLILSDDCTIVAYGNLHPQPLQDSPKRFDVEVSVLGSEAFSSGVHYWEVVVAEKTQWVIGLAHEAASRKGSIQIQPSRGFYCIVMHDGNQYSACTEPWTRLNVRDKLDKVGVFLDYDQGLLIFYNADDMSWLYTFREKFPGKLCSYFSPGQSHANGKNVQPLRINTVRI
Percent Infected R1: 51.3%
Z score R1: −0.474

B4: TRIM52: human RING type E3 ligase expressed from lentiviral vector (protein, UniProt Q96A61 1-297, looked up)
E3 ubiquitin-protein ligase …: MAGYATTPSPMQTLQEEAVCAICLDYFKDPVSISCGHNFCRGCVTQLWSKEDEEDQNEEEDEWEEEEDEEAVGAMDGWDGSIREVLYRGNADEELFQDQDDDELWLGDSGITNWDNVDYMWDEEEEEEEEDQDYYLGGLRPDLRIDVYREEEILEAYDEDEDEELYPDIHPPPSLPLPGQFTCPQCRKSFTRRSFRPNLQLANMVQIIRQMCPTPYRGNRSNDQGMCFKHQEALKLFCEVDKEAICVVCRESRSHKQHSVLPLEEVVQEYQEIKLETTLVGILQIEQESIHSKAYNQ
modifications: lentiviral expression
notes: as for B1
Percent Infected R1: 67.6%
Z score R1: −0.267

B5: TRIM49: human RING type E3 ligase expressed from lentiviral vector (protein, UniProt P0CI25 1-452, looked up)
Tripartite motif-containing …: MNSGILQVFQGELICPLCMNYFIDPVTIDCGHSFCRPCFYLNWQDIPFLVQCSECTKSTEQINLKTNIHLKKMASLARKVSLWLFLSSEEQMCGTHRETKKIFCEVDRSLLCLLCSSSQEHRYHRHRPIEWAAEEHREKLLQKMQSLWEKACENHRNLNVETTRTRCWKDYVNLRLEAIRAEYQKMPAFHHEEEKHNLEMLKKKGKEIFHRLHLSKAKMAHRMEILRGMYEELNEMCHKPDVELLQAFGDILHRSESVLLHMPQPLNPELSAGPITGLRDRLNQFRVHITLHHEEANNDIFLYEILRSMCIGCDHQDVPYFTATPRSFLAWGVQTFTSGKYYWEVHVGDSWNWAFGVCNMYRKEKNQNEKIDGKAGLFLLGCVKNDIQCSLFTTSPLMLQYIPKPTSRVGLFLDCEAKTVSFVDVNQSSLIYTIPNCSFSPPLRPIFCCIHF
modifications: lentiviral expression
notes: as for B1
Percent Infected R1: 65.7%
Z score R1: −0.291

B6: TRIM50: human RING type E3 ligase expressed from lentiviral vector (protein, UniProt Q86XT4 1-487, looked up)
E3 ubiquitin-protein ligase …: MAWQVSLPELEDRLQCPICLEVFKEPLMLQCGHSYCKGCLVSLSCHLDAELRCPVCRQAVDGSSSLPNVSLARVIEALRLPGDPEPKVCVHHRNPLSLFCEKDQELICGLCGLLGSHQHHPVTPVSTVYSRMKEELAALISELKQEQKKVDELIAKLVNNRTRIVNESDVFSWVIRREFQELHHLVDEEKARCLEGIGGHTRGLVASLDMQLEQAQGTRERLAQAECVLEQFGNEDHHKFIRKFHSMASRAEMPQARPLEGAFSPISFKPGLHQADIKLTVWKRLFRKVLPAPEPLKLDPATAHPLLELSKGNTVVQCGLLAQRRASQPERFDYSTCVLASRGFSCGRHYWEVVVGSKSDWRLGVIKGTASRKGKLNRSPEHGVWLIGLKEGRVYEAFACPRVPLPVAGHPHRIGLYLHYEQGELTFFDADRPDDLRPLYTFQADFQGKLYPILDTCWHERGSNSLPMVLPPPSGPGPLSPEQPTKL
Percent Infected R1: 57.8%
Z score R1: −0.392

B7: TRIM61: human RING type E3 ligase expressed from lentiviral vector (protein, UniProt Q5EBN2 1-209, looked up)
Putative tripartite …: MEFVTALADLRAEASCPICLDYLKDPVTISCGHNFCLSCIIMSWKDLHDSFPCPFCHFCCPERKFISNPQLGSLTEIAKQLQIRSKKRKRQEEKHVCKKHNQVLTFFCQKDLELLCPRCSLSTDHQHHCVWPIKKAASYHRKKLEEYNAPWKERVELIEKVITMQTRKSLELKKKMESPSVTRLECSCTISAHFNLRLPGSSDSSASGS
Percent Infected R1: 65.8%
Z score R1: −0.29

B8: TRIM60: human RING type E3 ligase expressed from lentiviral vector (protein, UniProt Q495X7 1-471, looked up)
Tripartite motif-containing …: MEFVTALVNLQEESSCPICLEYLKDPVTINCGHNFCRSCLSVSWKDLDDTFPCPVCRFCFPYKSFRRNPQLRNLTEIAKQLQIRRSKRKRQKENAMCEKHNQFLTLFCVKDLEILCTQCSFSTKHQKHYICPIKKAASYHREILEGSLEPLRNNIERVEKVIILQGSKSVELKKKVEYKREEINSEFEQIRLFLQNEQEMILRQIQDEEMNILAKLNENLVELSDYVSTLKHLLREVEGKSVQSNLELLTQAKSMHHKYQNLKCPELFSFRLTKYGFSLPPQYSGLDRIIKPFQVDVILDLNTAHPQLLVSEDRKAVRYERKKRNICYDPRRFYVCPAVLGSQRFSSGRHYWEVEVGNKPKWILGVCQDCLLRNWQDQPSVLGGFWAIGRYMKSGYVASGPKTTQLLPVVKPSKIGIFLDYELGDLSFYNMNDRSILYTFNDCFTEAVWPYFYTGTDSEPLKICSVSDSER
Percent Infected R1: 54.3%
Z score R1: −0.436
